The chains are these.
B1: Double-stranded RNA-binding protein Staufen homolog 1, residues 183 to 249; numbered along this chain, O95793 (parent)
chain: KSEISQVFEIALKRNLPVNFEVARESGPPHMKNFVTKVSVGEFVGEGEGKSKKISKKNAAIAVLEEL

± gives the uncertainty stated by the source.

Results on 40 variants are retold here after the Human Domainome abundance scans (Beltran et al. 2025).

This series covers variants of B1. Nature of the series: abundance fitness (aPCA) (normalised: wild type 0, dead -1); higher = more abundant; growth selection in yeast, the domain comes from the species named. The conditions noted are these: Homo sapiens.
Consider KSEISQVFEIALKRNLPVNFEVARESGPPHMKNFVTKVSVGEFVGEGEWKSKKISKKNAAIAVLEEL, for which the abundance fitness was -1.14 ± 0.11.

For KSEISQVFEIALKRNLPVNFEVARESGPPHMKNFVTKVSVGEFVGEGELKSKKISKKNAAIAVLEEL, the abundance fitness is -0.802 ± 0.045.

For KSEISQVFEIALKRNLPVNFEVARESGPPHMKNFVTKVSVGEFVGEGEVKSKKISKKNAAIAVLEEL, the abundance fitness was -0.694 ± 0.04. For KSEISQVFEIALKRNLPVNFEVARESGPPHMKNFVTKVSVGEFVGEGEAKSKKISKKNAAIAVLEEL the value was -0.485 ± 0.043; for KSEISQVFEIALKRNLPVNFEVARESGPPHMKNFVTKVSVGEFVGEGEEKSKKISKKNAAIAVLEEL, -0.74 ± 0.052; for KSEISQVFEIALKRNLPVNFEVARESGPPHMKNFVTKVSVGEFVGEGEPKSKKISKKNAAIAVLEEL, -0.854 ± 0.08. For KSEISQVFEIALKRNLPVNFEVARESGPPHMKNFVTKVSVGEFVGEGETKSKKISKKNAAIAVLEEL the value was -0.8 ± 0.065. For KSEISQVFEIALKRNLPVNFEVARESGPPHMKNFVTKVSVGEFVGEGEMKSKKISKKNAAIAVLEEL the value was -0.729 ± 0.056; for KSEISQVFEIALKRNLPVNFEVARESGPPHMKNFVTKVSVGEFVGEGENKSKKISKKNAAIAVLEEL, -0.748 ± 0.11; for KSEISQVFEIALKRNLPVNFEVARESGPPHMKNFVTKVSVGEFVGEGEDKSKKISKKNAAIAVLEEL, -0.519 ± 0.064.

As to KSEISQVFEIALKRNLPVNFEVARESGPPHMKNFVTKVSVGEFVGEGECKSKKISKKNAAIAVLEEL, the abundance fitness was -0.911 ± 0.13. For KSEISQVFEIALKRNLPVNFEVARESGPPHMKNFVTKVSVGEFVGEGEHKSKKISKKNAAIAVLEEL the value was -0.53 ± 0.15; for KSEISQVFEIALKRNLPVNFEVARESGPPHMKNFVTKVSVGEFVGEGEQKSKKISKKNAAIAVLEEL, -0.741 ± 0.069; for KSEISQVFEIALKRNLPVNFEVARESGPPHMKNFVTKVSVGEFVGEGEGKSDKISKKNAAIAVLEEL, -0.587 ± 0.067. KSEISQVFEIALKRNLPVNFEVARESGPPHMKNFVTKVSVGEFVGEGEGKSCKISKKNAAIAVLEEL: the abundance fitness was -0.432 ± 0.075.

For the variant KSEISQVFEIALKRNLPVNFEVARESGPPHMKNFVTKVSVGEFVGEGEGKSFKISKKNAAIAVLEEL, the abundance fitness was -0.481 ± 0.082. In the case of KSEISQVFEIALKRNLPVNFEVARESGPPHMKNFVTKVSVGEFVGEGEGKSAKISKKNAAIAVLEEL, the abundance fitness was -0.125 ± 0.043.

As for KSEISQVFEIALKRNLPVNFEVARESGPPHMKNFVTKVSVGEFVGEPEGKSKKISKKNAAIAVLEEL, the abundance fitness was -0.763 ± 0.097. In the case of KSEISQVFEIALKRNLPVNFEVARESGPPHMKNFVTKVSVGEFVGEREGKSKKISKKNAAIAVLEEL, the abundance fitness is -0.627 ± 0.041. For KSEISQVFEIALKRNLPVNFEVARESGPPHMKNFVTKVSVGEFVGEVEGKSKKISKKNAAIAVLEEL the value was -0.834 ± 0.057.

KSEISQVFEIALKRNLPVNFEVARESGPPHMKNFVTKVSVGEFVGEWEGKSKKISKKNAAIAVLEEL: the abundance fitness is -1.01 ± 0.086.

KSEISQVFEIALKRNLPVNFEVARESGPPHMKNFVTKVSVGEFVGEQEGKSKKISKKNAAIAVLEEL: the abundance fitness is -0.611 ± 0.065. For KSEISQVFEIALKRNLPVNFEVARESGPPHMKNFVTKVSVGEFVGEYEGKSKKISKKNAAIAVLEEL the value was -0.945 ± 0.1; for KSEISQVFEIALKRNLPVNFEVARESGPPHMKNFVTKVSVGEFVGESEGKSKKISKKNAAIAVLEEL, -0.667 ± 0.048; for KSEISQVFEIALKRNLPVNFEVARESGPPHMKNFVTKVSVGEFVGETEGKSKKISKKNAAIAVLEEL, -0.868 ± 0.082. For KSEISQVFEIALKRNLPVNFEVARESGPPHMKNFVTKVSVGEFVGEGEGKIKKISKKNAAIAVLEEL the value was -0.904 ± 0.18; for KSEISQVFEIALKRNLPVNFEVARESGPPHMKNFVTKVSVGEFVGEGEGKWKKISKKNAAIAVLEEL, -0.578 ± 0.19; for KSEISQVFEIALKRNLPVNFEVARESGPPHMKNFVTKVSVGEFVGEGEGKHKKISKKNAAIAVLEEL, -1 ± 0.26. For KSEISQVFEIALKRNLPVNFEVARESGPPHMKNFVTKVSVGEFVGEGEGKTKKISKKNAAIAVLEEL the value was 0.056 ± 0.067; for KSEISQVFEIALKRNLPVNFEVARESGPPHMKNFVTKVSVGEFVGEGEGKEKKISKKNAAIAVLEEL, -0.553 ± 0.098. Regarding KSEISQVFEIALKRNLPVNFEVARESGPPHMKNFVTKVSVGEFVGEGEGKYKKISKKNAAIAVLEEL, the abundance fitness is -0.657 ± 0.087.

Regarding KSEISQVFEIALKRNLPVNFEVARESGPPHMKNFVTKVSVGEFVGEGEGKKKKISKKNAAIAVLEEL, the abundance fitness was -0.344 ± 0.077. For KSEISQVFEIALKRNLPVNFEVARESGPPHMKNFVTKVSVGEFVGEGEGKLKKISKKNAAIAVLEEL the value was -0.797 ± 0.068. Take KSEISQVFEIALKRNLPVNFEVARESGPPHMKNFVTKVSVGEFVGEGEGKVKKISKKNAAIAVLEEL: the abundance fitness is -0.615 ± 0.071.

For the variant KSEISQVFEIALKRNLPVNFEVARESGPPHMKNFVTKVSVGEFVGEGEGKRKKISKKNAAIAVLEEL, the abundance fitness was -0.244 ± 0.07.

Regarding KSEISQVFEIALKRNLPVNFEVARESGPPHMKNFVTKVSVGEFVGEGEGKPKKISKKNAAIAVLEEL, the abundance fitness is -0.449 ± 0.074.

KSEISQVFEIALKRNLPVNFEVARESGPPHMKNFVTKVSVGEFVGEGEGKMKKISKKNAAIAVLEEL: the abundance fitness is -0.587 ± 0.095. For KSEISQVFEIALKRNLPVNFEVARESGPPHMKNFVTKVSVGEFVGEGEGKFKKISKKNAAIAVLEEL the value was -0.929 ± 0.1.

On to KSEISQVFEIALKRNLPVNFEVARESGPPHMKNFVTKVSVGEFVGEGEGKQKKISKKNAAIAVLEEL, for which the abundance fitness is -0.445 ± 0.081.

For the variant KSEISQVFEIALKRNLPVNFEVARESGPPHMKNFVTKVSVGEFVGEGEGKGKKISKKNAAIAVLEEL, the abundance fitness was -0.791 ± 0.09.
